From patent publication US20200297818A1 (ZEALAND PHARMA A S, published 2020)
Blank lines part the entries; values can stand above or below the binder they belong to.

Assays:
[1] = molecular target: T1, human GLP-2 receptor (hGLP2-R) (human, UniProt O95838 1-553); assay: cell-based or functional assay
T1 sequence (looked up): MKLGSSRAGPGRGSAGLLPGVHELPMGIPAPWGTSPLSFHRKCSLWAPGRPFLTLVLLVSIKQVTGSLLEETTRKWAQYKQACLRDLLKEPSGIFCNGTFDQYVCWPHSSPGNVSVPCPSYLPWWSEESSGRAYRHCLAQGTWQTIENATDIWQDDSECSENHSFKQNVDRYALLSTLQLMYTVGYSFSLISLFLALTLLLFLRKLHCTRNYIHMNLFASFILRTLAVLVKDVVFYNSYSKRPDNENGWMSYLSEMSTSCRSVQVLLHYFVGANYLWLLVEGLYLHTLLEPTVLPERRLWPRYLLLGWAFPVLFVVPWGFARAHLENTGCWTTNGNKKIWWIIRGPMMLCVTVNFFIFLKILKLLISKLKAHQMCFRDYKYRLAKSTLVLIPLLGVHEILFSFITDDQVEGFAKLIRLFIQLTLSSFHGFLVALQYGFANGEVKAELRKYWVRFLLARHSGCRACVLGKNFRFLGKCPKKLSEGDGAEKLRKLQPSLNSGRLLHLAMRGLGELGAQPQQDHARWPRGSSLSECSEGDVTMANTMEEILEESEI

[2] = molecular target: human glucagon-like peptide 1 receptor (GLP-1 R) (human, UniProt P43220 24-463); assay: cell-based or functional assay

B1: Compound 9 (peptide)
peptide: HXEGTFTSELATILDGXAARDFIAWLIEHKITD
HELM: PEPTIDE1{H.[Aib].E.G.T.F.T.S.E.L.A.T.I.L.D.G.K.A.A.R.D.F.I.A.W.L.I.E.H.K.I.T.D}|PEPTIDE2{[O=C(O)CCCCCCCCCCCCCCCCC(=O)[*:2]].[gGlu]}$PEPTIDE1,PEPTIDE2,17:R3-2:R2$$$V2.0
SMILES: CC[C@H](C)[C@H](NC(=O)[C@H](Cc1ccccc1)NC(=O)[C@H](CC(=O)O)NC(=O)[C@H](CCCNC(=N)N)NC(=O)[C@H](C)NC(=O)[C@H](C)NC(=O)[C@H](CCCCNC(=O)CC[C@H](NC(=O)CCCCCCCCCCCCCCCCC(=O)O)C(=O)O)NC(=O)CNC(=O)[C@H](CC(=O)O)NC(=O)[C@H](CC(C)C)NC(=O)[C@@H](NC(=O)[C@@H](NC(=O)[C@H](C)NC(=O)[C@H](CC(C)C)NC(=O)[C@H](CCC(=O)O)NC(=O)[C@H](CO)NC(=O)[C@@H](NC(=O)[C@H](Cc1ccccc1)NC(=O)[C@@H](NC(=O)CNC(=O)[C@H](CCC(=O)O)NC(=O)C(C)(C)NC(=O)[C@@H](N)Cc1c[nH]cn1)[C@@H](C)O)[C@@H](C)O)[C@@H](C)O)[C@@H](C)CC)C(=O)N[C@@H](C)C(=O)N[C@@H](Cc1c[nH]c2ccccc12)C(=O)N[C@@H](CC(C)C)C(=O)N[C@H](C(=O)N[C@@H](CCC(=O)O)C(=O)N[C@@H](Cc1c[nH]cn1)C(=O)N[C@@H](CCCCN)C(=O)N[C@H](C(=O)N[C@H](C(=O)N[C@@H](CC(=O)O)C(=O)O)[C@@H](C)O)[C@@H](C)CC)[C@@H](C)CC
EC50 GLP-2 (nM); cAMP response [1]: 0.056 nM
EC50 GLP-1 (nM); cAMP response [2]: 0.056 nM

B2: Compound 10 (peptide)
peptide: HXEGTFSSELATILDXLAARDFIAWLIEHKITD
HELM: PEPTIDE1{H.[Aib].E.G.T.F.S.S.E.L.A.T.I.L.D.K.L.A.A.R.D.F.I.A.W.L.I.E.H.K.I.T.D}|PEPTIDE2{[O=C(O)CCCCCCCCCCCCCCCCC(=O)[*:2]].[gGlu]}$PEPTIDE1,PEPTIDE2,16:R3-2:R2$$$V2.0
SMILES: CC[C@H](C)[C@H](NC(=O)[C@H](Cc1ccccc1)NC(=O)[C@H](CC(=O)O)NC(=O)[C@H](CCCNC(=N)N)NC(=O)[C@H](C)NC(=O)[C@H](C)NC(=O)[C@H](CC(C)C)NC(=O)[C@H](CCCCNC(=O)CC[C@H](NC(=O)CCCCCCCCCCCCCCCCC(=O)O)C(=O)O)NC(=O)[C@H](CC(=O)O)NC(=O)[C@H](CC(C)C)NC(=O)[C@@H](NC(=O)[C@@H](NC(=O)[C@H](C)NC(=O)[C@H](CC(C)C)NC(=O)[C@H](CCC(=O)O)NC(=O)[C@H](CO)NC(=O)[C@H](CO)NC(=O)[C@H](Cc1ccccc1)NC(=O)[C@@H](NC(=O)CNC(=O)[C@H](CCC(=O)O)NC(=O)C(C)(C)NC(=O)[C@@H](N)Cc1c[nH]cn1)[C@@H](C)O)[C@@H](C)O)[C@@H](C)CC)C(=O)N[C@@H](C)C(=O)N[C@@H](Cc1c[nH]c2ccccc12)C(=O)N[C@@H](CC(C)C)C(=O)N[C@H](C(=O)N[C@@H](CCC(=O)O)C(=O)N[C@@H](Cc1c[nH]cn1)C(=O)N[C@@H](CCCCN)C(=O)N[C@H](C(=O)N[C@H](C(=O)N[C@@H](CC(=O)O)C(=O)O)[C@@H](C)O)[C@@H](C)CC)[C@@H](C)CC
EC50 GLP-2 (nM); cAMP response [1]: 0.087 nM
EC50 GLP-1 (nM); cAMP response [2]: 1.8 nM

B3: Compound 11 (peptide)
peptide: HXEGSFTSELATILDXLAARDFIAWLIEHKITD
HELM: PEPTIDE1{H.[Aib].E.G.S.F.T.S.E.L.A.T.I.L.D.K.L.A.A.R.D.F.I.A.W.L.I.E.H.K.I.T.D}|PEPTIDE2{[O=C(O)CCCCCCCCCCCCCCCCC(=O)[*:2]].[gGlu]}$PEPTIDE1,PEPTIDE2,16:R3-2:R2$$$V2.0
SMILES: CC[C@H](C)[C@H](NC(=O)[C@H](Cc1ccccc1)NC(=O)[C@H](CC(=O)O)NC(=O)[C@H](CCCNC(=N)N)NC(=O)[C@H](C)NC(=O)[C@H](C)NC(=O)[C@H](CC(C)C)NC(=O)[C@H](CCCCNC(=O)CC[C@H](NC(=O)CCCCCCCCCCCCCCCCC(=O)O)C(=O)O)NC(=O)[C@H](CC(=O)O)NC(=O)[C@H](CC(C)C)NC(=O)[C@@H](NC(=O)[C@@H](NC(=O)[C@H](C)NC(=O)[C@H](CC(C)C)NC(=O)[C@H](CCC(=O)O)NC(=O)[C@H](CO)NC(=O)[C@@H](NC(=O)[C@H](Cc1ccccc1)NC(=O)[C@H](CO)NC(=O)CNC(=O)[C@H](CCC(=O)O)NC(=O)C(C)(C)NC(=O)[C@@H](N)Cc1c[nH]cn1)[C@@H](C)O)[C@@H](C)O)[C@@H](C)CC)C(=O)N[C@@H](C)C(=O)N[C@@H](Cc1c[nH]c2ccccc12)C(=O)N[C@@H](CC(C)C)C(=O)N[C@H](C(=O)N[C@@H](CCC(=O)O)C(=O)N[C@@H](Cc1c[nH]cn1)C(=O)N[C@@H](CCCCN)C(=O)N[C@H](C(=O)N[C@H](C(=O)N[C@@H](CC(=O)O)C(=O)O)[C@@H](C)O)[C@@H](C)CC)[C@@H](C)CC
EC50 GLP-2 (nM); cAMP response [1]: 0.085 nM
EC50 GLP-1 (nM); cAMP response [2]: 0.32 nM

The remaining lines, values ahead:

EC50 GLP-2 (nM); cAMP response [1]: 0.11 nM
EC50 GLP-1 (nM); cAMP response [2]: 0.14 nM
B4: Compound 12 (peptide)
peptide: HXEGTFTSELATILDXLAARDFIAWLIEHKITD
HELM: PEPTIDE1{H.[Aib].E.G.T.F.T.S.E.L.A.T.I.L.D.K.L.A.A.R.D.F.I.A.W.L.I.E.H.K.I.T.D}|PEPTIDE2{[O=C(O)CCCCCCCCCCCCCCCCC(=O)[*:2]].[gGlu]}$PEPTIDE1,PEPTIDE2,16:R3-2:R2$$$V2.0
SMILES: CC[C@H](C)[C@H](NC(=O)[C@H](Cc1ccccc1)NC(=O)[C@H](CC(=O)O)NC(=O)[C@H](CCCNC(=N)N)NC(=O)[C@H](C)NC(=O)[C@H](C)NC(=O)[C@H](CC(C)C)NC(=O)[C@H](CCCCNC(=O)CC[C@H](NC(=O)CCCCCCCCCCCCCCCCC(=O)O)C(=O)O)NC(=O)[C@H](CC(=O)O)NC(=O)[C@H](CC(C)C)NC(=O)[C@@H](NC(=O)[C@@H](NC(=O)[C@H](C)NC(=O)[C@H](CC(C)C)NC(=O)[C@H](CCC(=O)O)NC(=O)[C@H](CO)NC(=O)[C@@H](NC(=O)[C@H](Cc1ccccc1)NC(=O)[C@@H](NC(=O)CNC(=O)[C@H](CCC(=O)O)NC(=O)C(C)(C)NC(=O)[C@@H](N)Cc1c[nH]cn1)[C@@H](C)O)[C@@H](C)O)[C@@H](C)O)[C@@H](C)CC)C(=O)N[C@@H](C)C(=O)N[C@@H](Cc1c[nH]c2ccccc12)C(=O)N[C@@H](CC(C)C)C(=O)N[C@H](C(=O)N[C@@H](CCC(=O)O)C(=O)N[C@@H](Cc1c[nH]cn1)C(=O)N[C@@H](CCCCN)C(=O)N[C@H](C(=O)N[C@H](C(=O)N[C@@H](CC(=O)O)C(=O)O)[C@@H](C)O)[C@@H](C)CC)[C@@H](C)CC

EC50 GLP-2 (nM); cAMP response [1]: 0.099 nM
EC50 GLP-1 (nM); cAMP response [2]: 2.2 nM
B5: Compound 13 (peptide)
peptide: HXEGTFSSELATILDXLAARDFIAWLIAHKITD
HELM: PEPTIDE1{H.[Aib].E.G.T.F.S.S.E.L.A.T.I.L.D.K.L.A.A.R.D.F.I.A.W.L.I.A.H.K.I.T.D}|PEPTIDE2{[O=C(O)CCCCCCCCCCCCCCCCC(=O)[*:2]].[gGlu]}$PEPTIDE1,PEPTIDE2,16:R3-2:R2$$$V2.0
SMILES: CC[C@H](C)[C@H](NC(=O)[C@H](CC(C)C)NC(=O)[C@H](Cc1c[nH]c2ccccc12)NC(=O)[C@H](C)NC(=O)[C@@H](NC(=O)[C@H](Cc1ccccc1)NC(=O)[C@H](CC(=O)O)NC(=O)[C@H](CCCNC(=N)N)NC(=O)[C@H](C)NC(=O)[C@H](C)NC(=O)[C@H](CC(C)C)NC(=O)[C@H](CCCCNC(=O)CC[C@H](NC(=O)CCCCCCCCCCCCCCCCC(=O)O)C(=O)O)NC(=O)[C@H](CC(=O)O)NC(=O)[C@H](CC(C)C)NC(=O)[C@@H](NC(=O)[C@@H](NC(=O)[C@H](C)NC(=O)[C@H](CC(C)C)NC(=O)[C@H](CCC(=O)O)NC(=O)[C@H](CO)NC(=O)[C@H](CO)NC(=O)[C@H](Cc1ccccc1)NC(=O)[C@@H](NC(=O)CNC(=O)[C@H](CCC(=O)O)NC(=O)C(C)(C)NC(=O)[C@@H](N)Cc1c[nH]cn1)[C@@H](C)O)[C@@H](C)O)[C@@H](C)CC)[C@@H](C)CC)C(=O)N[C@@H](C)C(=O)N[C@@H](Cc1c[nH]cn1)C(=O)N[C@@H](CCCCN)C(=O)N[C@H](C(=O)N[C@H](C(=O)N[C@@H](CC(=O)O)C(=O)O)[C@@H](C)O)[C@@H](C)CC

EC50 GLP-2 (nM); cAMP response [1]: 0.086 nM
EC50 GLP-1 (nM); cAMP response [2]: 0.57 nM
B6: Compound 14 (peptide)
peptide: HXEGSFTSELATILDXLAARDFIAWLIAHKITD
HELM: PEPTIDE1{H.[Aib].E.G.S.F.T.S.E.L.A.T.I.L.D.K.L.A.A.R.D.F.I.A.W.L.I.A.H.K.I.T.D}|PEPTIDE2{[O=C(O)CCCCCCCCCCCCCCCCC(=O)[*:2]].[gGlu]}$PEPTIDE1,PEPTIDE2,16:R3-2:R2$$$V2.0
SMILES: CC[C@H](C)[C@H](NC(=O)[C@H](CC(C)C)NC(=O)[C@H](Cc1c[nH]c2ccccc12)NC(=O)[C@H](C)NC(=O)[C@@H](NC(=O)[C@H](Cc1ccccc1)NC(=O)[C@H](CC(=O)O)NC(=O)[C@H](CCCNC(=N)N)NC(=O)[C@H](C)NC(=O)[C@H](C)NC(=O)[C@H](CC(C)C)NC(=O)[C@H](CCCCNC(=O)CC[C@H](NC(=O)CCCCCCCCCCCCCCCCC(=O)O)C(=O)O)NC(=O)[C@H](CC(=O)O)NC(=O)[C@H](CC(C)C)NC(=O)[C@@H](NC(=O)[C@@H](NC(=O)[C@H](C)NC(=O)[C@H](CC(C)C)NC(=O)[C@H](CCC(=O)O)NC(=O)[C@H](CO)NC(=O)[C@@H](NC(=O)[C@H](Cc1ccccc1)NC(=O)[C@H](CO)NC(=O)CNC(=O)[C@H](CCC(=O)O)NC(=O)C(C)(C)NC(=O)[C@@H](N)Cc1c[nH]cn1)[C@@H](C)O)[C@@H](C)O)[C@@H](C)CC)[C@@H](C)CC)C(=O)N[C@@H](C)C(=O)N[C@@H](Cc1c[nH]cn1)C(=O)N[C@@H](CCCCN)C(=O)N[C@H](C(=O)N[C@H](C(=O)N[C@@H](CC(=O)O)C(=O)O)[C@@H](C)O)[C@@H](C)CC
